# Target: CD22 (human) (UniProt P20273)
# Assay: cell-based or functional assay
Substance,"LC50, 697 cells (ALL) [ng/mL]","LC50, EU cells (ALL) [ng/mL]","LC50, KOPN 8 cells (ALL) [ng/mL]","LC50, NALM 6 cells (ALL) [ng/mL]","LC50, RAJI cells (Burkitt) [ng/mL]","LC50, REH cells (ALL) [ng/mL]","LC50, 697 cells (ALL), second series [ng/mL]","LC50, EU cells (ALL), second series [ng/mL]","LC50, KOPN 8 cells (ALL), second series [ng/mL]","LC50, NALM 6 cells (ALL), second series [ng/mL]","LC50, RAJI cells (Burkitt), second series [ng/mL]","LC50, REH cells (ALL), second series [ng/mL]"
HA22-LR-KDEL,0.2,0.3,0.3,1,0.2,0.2,–,–,–,–,–,–
HA22-LR-8X,–,–,–,–,–,–,1,0.3,0.4,2,0.2,0.5
